According to publication PMC3605031, “Mitogen-Activated Protein Kinase p38b Interaction with Delta Class Glutathione Transferases from the Fruit Fly, Drosophila melanogaster” (Journal of Insect Science, 2012):
Like-named read-outs stand apart in the source and are kept apart here. Blank lines part the entries; values can stand above or below the molecule they belong to.

Tests used:
[1] = target: Drosophila melanogaster p38b mitogen-activated protein kinase (D. melanogaster) (UniProt O61443)
[2] = target: Drosophila melanogaster p38b mitogen-activated protein kinase (D. melanogaster) (UniProt O61443); remark: listed apart in the source
[3] = target: Drosophila melanogaster p38b mitogen-activated protein kinase (D. melanogaster) (UniProt O61443); remark: listed apart in the source

Chain of UniProt O61443 (O61443 whole entry): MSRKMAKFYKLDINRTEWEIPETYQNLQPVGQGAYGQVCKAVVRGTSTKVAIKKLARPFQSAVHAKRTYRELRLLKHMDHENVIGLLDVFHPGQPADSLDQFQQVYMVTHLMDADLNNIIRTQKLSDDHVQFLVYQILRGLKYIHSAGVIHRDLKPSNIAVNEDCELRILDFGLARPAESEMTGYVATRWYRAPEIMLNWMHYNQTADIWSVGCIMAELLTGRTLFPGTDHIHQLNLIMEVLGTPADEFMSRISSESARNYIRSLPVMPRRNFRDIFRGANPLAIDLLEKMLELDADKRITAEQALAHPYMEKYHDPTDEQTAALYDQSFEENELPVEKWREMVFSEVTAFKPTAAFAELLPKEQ

fold change of p38b kinase activity toward ATF2 with GST at 1:1 molar ratio (ADP Quest assay) [1]: 7.1 fold | fold change of p38b kinase activity toward jun with GST at 1:1 molar ratio (ADP Quest assay) [1]: 10 fold
Molecule: Drosophila melanogaster Delta class glutathione transferase DmGSTD11b (enzyme)

fold change of p38b kinase activity toward ATF2 with GST at 1:1 molar ratio (ADP Quest assay) [1]: 6.5 fold | fold change of p38b kinase activity toward jun with GST at 1:1 molar ratio (ADP Quest assay) [1]: 8.1 fold | increase of GST activity toward DCNB after incubation with p38b at 1:1 molar ratio [2]: 30 % increase
B1: Drosophila melanogaster Delta class glutathione transferase DmGSTD8 (enzyme)
chain: MDFYYHPCSAPCRSVIMTAKALGVDLNMKLLKVMDGEQLKPEFVKLNPQHCIPTLVDDGFSIWESRAILIYLVEKYGADDSLYPSDPQKKAVVNQRLYFDMGTLFQSFVEAIYPQIRNNHPADPEAMQKVDSAFGHLDTFLEDQEYVAGDCLTIADIALLASVSTFEVVDFDIAQYPNVARWYENAKEVTPGWEENWDGVQLIKKLVQERNE

fold change of p38b kinase activity toward ATF2 with GST at 1:1 molar ratio (ADP Quest assay) [1]: 1.4 fold | fold change of p38b kinase activity toward jun with GST at 1:1 molar ratio (ADP Quest assay) [1]: 1.6 fold | decrease of GST activity toward CDNB after incubation with p38b at 1:1 molar ratio [2]: 10 % decrease | decrease of GST activity toward DCNB after incubation with p38b at 1:1 molar ratio [2]: 40 % decrease | decrease of GST activity toward CDNB after incubation with p38b at 1:1 molar ratio, as told in the discussion [3]: 8 % decrease | decrease of GST activity toward DCNB after incubation with p38b at 1:1 molar ratio, as told in the discussion [3]: 36 % decrease | fold change of p38b kinase activity toward jun with GST at 1:1 molar ratio (ADP Quest assay), as told in the discussion [3]: 1.5 fold
B2: Drosophila melanogaster Delta class glutathione transferase DmGSTD5 (enzyme)
chain: MDFYYSPRGSGCRTVIMVAKALGVKLNMKLLNTLEKDQLKPEFVKLNPQHTIPTLVDNGFSIWESRAIAVYLVEKYGKDDTLFPKDPKKQALVNQRLYFDMGTLYDSFAKYYYPLFHTGKPGSDEDFKKIESSFEYLNIFLEGQNYVAGDHLTVADIAILSTVSTFEIFDFDLNKYPNVARWYANAKKVTPGWEENWKGAVELKGVFDARQAAAKQ

fold change of p38b kinase activity toward ATF2 with GST at 1:1 molar ratio (ADP Quest assay) [1]: 1.8 fold | fold change of p38b kinase activity toward jun with GST at 1:1 molar ratio (ADP Quest assay) [1]: 2.6 fold
B3: Drosophila melanogaster Delta class glutathione transferase DmGSTD3 (enzyme)
chain: MVGKALGLEFNKKIINTLKGEQMNPDFIKINPQHSIPTLVDNGFTIWESRAILVYLVEKYGKDDALYPKDIQKQAVINQRLYFDMALMYPTLANYYYKAFTTGQFGSEEDYKKVQETFDFLNTFLEGQDYVAGDQYTVADIAILANVSNFDVVGFDISKYPNVARWYDHVKKITPGWEENWAGALDVKKRIEEKQNAAK

increase of GST activity toward DCNB after incubation with p38b at 1:1 molar ratio [2]: 10 % increase
B4: Drosophila melanogaster Delta class glutathione transferase DmGSTD7 (enzyme)
chain: MPNLDLYNFPMAPASRAIQMVAKALGLELNSKLINTMEGDQLKPEFVRINPQHTIPTLVDNGFVIWESRAIAVYLVEKYGKPDSPLYPNDPQKRALINQRLYFDMGTLYDALTKYFFLIFRTGKFGDQEALDKVNSAFGFLNTFLEGQDFVAGSQLTVADIVILATVSTVEWFSFDLSKFPNVERWLKNAPKVTPGWEQNLESLQQGKKFLQDLQAAKEKEVKA

increase of GST activity toward DCNB after incubation with p38b at 1:1 molar ratio [2]: 37 % increase | decrease of GST activity toward CDNB after incubation with p38b at 1:1 molar ratio [3]: 5 % decrease
B5: Drosophila melanogaster Delta class glutathione transferase DmGSTD2 (enzyme)
chain: MDFYYMPGGGGCRTVIMVAKALGLELNKKLLNTMEGEQLKPEFVKLNPQHTIPTLVDNGFSIWESRAIAVYLVEKYGKDDYLLPNDPKKRAVINQRLYFDMGTLYESFAKYYYPLFRTGKPGSDEDLKRIETAFGFLDTFLEGQEYVAGDQLTVADIAILSTVSTFEVSEFDFSKYSNVSRWYDNAKKVTPGWDENWEGLMAMKALFDARKLAAK
